Assays:
[1] = tested on: genomic G4 sequences (folded G4 structures); experiment: G4 microarray binding in potassium vs lithium; design: species or system human; conditions: GST-tagged proteins
Description: The binding specificities of several molecules were evaluated. Microarrays were preincubated with 100 mM potassium chloride to induce G4 formation. Binding of each molecule is measured by detection of fluorescence intensity at each of the microarray features. BG4 and pyridostatin were conjugated with Cy5. Cellular proteins were expressed as chimeric proteins containing GST, and binding for these proteins was detected using an anti-GST antibody conjugated with Cy5 (Materials and Methods). G4 Structures Fold on DNA Microarrays. To evaluate the utility of DNA microarrays to examine G4-binding specificity, a Cy5-labeled pyridostatin (Cy5-PDS), a small molecule known to bind broadly to G4 structures, was synthesized.^13 A Cy5 conjugated version of BG4 (Cy5-BG4), an antibody developed to bind G4s, was also obtained.^31 FIG. 1A, B presents replicate binding intensities to 15,491 DNA sequences on the Design 3 microarray using either Cy5-PDS or Cy5-BG4. For Cy5-PDS, robust binding is observed at 1 μM, with fluorescence intensities ranging over 100-fold between strongest and weakest bound DNA features. The fluorescence-binding intensities of Cy5-PDS are proportional to the concentration of pyridostatin used). […] Antibody binding to non-G4 features increases with higher concentrations, and in some cases non-G4 sequences are more strongly bound by Cy5-BG4 than G4 sequences, including multiple cytosine-rich negative control sequences. Inhibition of G4 Formation Inhibits Cy5-PDS and Cy5-BG4 Binding. Cy5-PDS and Cy5-BG4 binding under conditions that inhibit G4 formation was examined to evaluate if G4 structures form on the microarray and are required for binding. […] It is noted that many sequences, in addition to the oncogene G4 sequences, are capable of forming G4s. […] For Cy5-BG4, the decrease in binding was up to 270-fold for genomic G4 sequences, while binding to negative controls decreased up to 23-fold (FIG. 1D,). In a second experiment, Cy5-PDS binding following a primer extension reaction that produces dsDNA^24 was examined (see Materials and Methods), anticipating that dsDNA would predominate over G4 formation^13. […] 2,27,28
Microarrays were preincubated with a 100 mM potassium chloride solution for 1 h at RT to induce G4 formation. Protein binding microarray experiments were then performed as previously described.^23 Microarrays were blocked with 4% nonfat dry milk in a potassium phosphate buffer before incubation with proteins or small molecules. Expressed proteins were blocked with 4% nonfat dry milk, ssDNA, and BSA. For the validation experiments, microarrays were also treated with 100 mM lithium chloride to inhibit G4 formation. For experiments examining dsDNA, single-stranded DNA probes were made double-stranded using a primer complementary to a 24-mer constant sequence following the method described previously.^23,24 Double stranding efficiency was monitored using 4% Cy3-dCTP.
Protein or molecule-bound microarrays were scanned with the G5761A SureScan Dx Microarray Scanner System (Agilent) to detect a Cy5 signal at two laser settings (30 and 100 PMT) to ensure signal intensities were below saturation. Spot intensities from microarray images were extracted using the Agilent Feature Extraction Software and are reported as raw fluorescence units. All binding assays were performed at least twice, with high agreement between replicates (R>0.8). Microarrays with the fewest number of saturated spots were used for further analysis. Median intensity was then computed for probes containing identical sequence on each microarray. […]

MYC Pu22 G4 variants = experiment: G4 microarray direct binding to loop length, loop sequence and tail variants; design: species or system human
Description: Three Agilent DNA microarrays (TABLE 1) were designed, each with four identical sectors that contain ca.177,440 ssDNA 60-mers to examine G4-binding specificity. Arrays were designed with 9-73 replicates of each unique sequence to ensure statistical significance (TABLE 1). Each microarray contains different sets of G4 variants designed to examine several sequence parameters that affect G4 formation and binding specificity such as loop length (Design 1), loop sequence (Design 2), tail sequence (Design 2), and single nucleotide variants of six known G4s (Design 3). […]
The effect of specific sequence parameters on molecule binding was examined. […] Distinct patterns within the best-bound sequences were identified, including flexibility for the nucleotides in the central loop of the G4 and an overall preference for thymines in loops (FIG. 3F), consistent with previous findings that T nucleotides in loops have a greater propensity for folding into G4s than other nucleotides.^39 Different tail sequence ([…] (SEQ ID NO: 3)) preferences were found for all measured molecules (FIG. 3G), further underscoring the utility of the platform in identifying sequence features important for G4 binding and highlighting tail sequences in determining binding specificity. […]

| Molecule | effect of lithium chloride (inhibiting G4 formation) on protein binding [1] | tail (flanking) sequence preference in direct binding (MYC Pu22 G4 variants; NNGGGTGGGGAGGGTGGGNN variants, no competitor) | correlation (R) of loop length of the MYC Pu22 G4 vs binding intensity (MYC Pu22 G4 variants; loop length variants) |
| --- | --- | --- | --- |
| DHX36: GST-tagged human DHX36/G4R1/MLEL1 helicase (protein, listed as Homo sapiens, GST tag, GST-tagged human DHX36/G4R1/MLEL1 helicase) MSYDYHQNWGRDGGPRSSGGGYGGGPAGGHGGNRGSGGGGGGGGGGRGGRGRHPGHLKGREIGMWYAKKQGQKNKEAERQERAVVHMDERREEQIVQLLNSVQAKNDKESEAQISWFAPEDHGYGTEVSTKNTPCSENKLDIQEKKLINQEKKMFRIRNRSYIDRDSEYLLQENEPDGTLDQKLLEDLQKKKNDLRYIEMQHFREKLPSYGMQKELVNLIDNHQVTVISGETGCGKTTQVTQFILDNYIERGKGSACRIVCTQPRRISAISVAERVAAERAESCGSGNSTGYQIRLQSRLPRKQGSILYCTTGIILQWLQSDPYLSSVSHIVLDEIHERNLQSDVLMTVVKDLLNFRSDLKVILMSATLNAEKFSEYFGNCPMIHIPGFTFPVVEYLLEDVIEKIRYVPEQKEHRSQFKRGFMQGHVNRQEKEEKEAIYKERWPDYVRELRRRYSASTVDVIEMMEDDKVDLNLIVALIRYIVLEEEDGAILVFLPGWDNISTLHDLLMSQVMFKSDKFLIIPLHSLMPTVNQTQVFKRTPPGVRKIVIATNIAETSITIDDVVYVIDGGKIKETHFDTQNNISTMSAEWVSKANAKQRKGRAGRVQPGHCYHLYNGLRASLLDDYQLPEILRTPLEELCLQIKILRLGGIAYFLSRLMDPPSNEAVLLSIRHLMELNALDKQEELTPLGVHLARLPVEPHIGKMILFGALFCCLDPVLTIAASLSFKDPFVIPLGKEKIADARRKELAKDTRSDHLTVVNAFEGWEEARRRGFRYEKDYCWEYFLSSNTLQMLHNMKGQFAEHLLGAGFVSSRNPKDPESNINSDNEKIIKAVICAGLYPKVAKIRLNLGKKRKMVKVYTKTDGLVAVHPKSVNVEQTDFHYNWLIYHLKMRTSSIYLYDCTEVSPYCLLFFGGDISIQKDNDQETIAVDEWIVFQSPARIAHLVKELRKELDILLQEKIESPHPVDWNDTKSRDCAVLSAIIDLIKTQEKATPRNFPPRFQDGYYS | weakened binding | preferentially binds MYC22 G4 variants containing pyrimidines (C/T) at the 5′ end of the G4 |  |
| FANCJ: GST-tagged human BRCA1-binding helicase-like protein / Fanconi anemia group J protein (protein, listed as Homo sapiens, GST tag) MSSMWSEYTIGGVKIYFPYKAYPSQLAMMNSILRGLNSKQHCLLESPTGSGKSLALLCSALAWQQSLSGKPADEGVSEKAEVQLSCCCACHSKDFTNNDMNQGTSRHFNYPSTPPSERNGTSSTCQDSPEKTTLAAKLSAKKQASIYRDENDDFQVEKKRIRPLETTQQIRKRHCFGTEVHNLDAKVDSGKTVKLNSPLEKINSFSPQKPPGHCSRCCCSTKQGNSQESSNTIKKDHTGKSKIPKIYFGTRTHKQIAQITRELRRTAYSGVPMTILSSRDHTCVHPEVVGNFNRNEKCMELLDGKNGKSCYFYHGVHKISDQHTLQTFQGMCKAWDIEELVSLGKKLKACPYYTARELIQDADIIFCPYNYLLDAQIRESMDLNLKEQVVILDEAHNIEDCARESASYSVTEVQLRFARDELDSMVNNNIRKKDHEPLRAVCCSLINWLEANAEYLVERDYESACKIWSGNEMLLTLHKMGITTATFPILQGHFSAVLQKEEKISPIYGKEEAREVPVISASTQIMLKGLFMVLDYLFRQNSRFADDYKIAIQQTYSWTNQIDISDKNGLLVLPKNKKRSRQKTAVHVLNFWCLNPAVAFSDINGKVQTIVLTSGTLSPMKSFSSELGVTFTIQLEANHIIKNSQVWVGTIGSGPKGRNLCATFQNTETFEFQDEVGALLLSVCQTVSQGILCFLPSYKLLEKLKERWLSTGLWHNLELVKTVIVEPQGGEKTNFDELLQVYYDAIKYKGEKDGALLVAVCRGKVSEGLDFSDDNARAVITIGIPFPNVKDLQVELKRQYNDHHSKLRGLLPGRQWYEIQAYRALNQALGRCIRHRNDWGALILVDDRFRNNPSRYISGLSKWVRQQIQHHSTFESALESLAEFSKKHQKVLNVSIKDRTNIQDNESTLEVTSLKYSTPPYLLEAASHLSPENFVEDEAKICVQELQCPKIITKNSPLPSSIISRKEKNDPVFLEEAGKAEKIVISRSTSPTFNKQTKRVSWSSFNSLGQYFTGKIPKATPELGSSENSASSPPRFKTEKMESKTVLPFTDKCESSNLTVNTSFGSCPQSETIISSLKIDATLTRKNHSEHPLCSEEALDPDIELSLVSEEDKQSTSNRDFETEAEDESIYFTPELYDPEDTDEEKNDLAETDRGNRLANNSDCILAKDLFEIRTIKEVDSAREVKAEDCIDTKLNGILHIEESKIDDIDGNVKTTWINELELGKTHEIEIKNFKPSPSKNKGMFPGFK | weakened binding |  | strongest effect |

— patent US20210333284A1, “METHODS AND MATERIALS FOR LARGE-SCALE ASSESSMENT OF LIGAND BINDING SELECTIVITY OF G-QUADRUPLEX RECOGNITION USING CUSTOM G4 MICROARRAYS” (Purdue Research Foundation, priority 2020, published 2021)
